Experimental data taken from patent US7026443.

Tests used:
HLA-A*0101 (human) = test: competition with 125I-labelled standard peptide for purified HLA-A*0101, bound and free separated by gel filtration
HLA-A*1101 (human) [1] = test: competition against a 125I-labelled standard probe peptide for purified HLA-A*1101, bound and free separated by gel filtration; value relative to the standard peptide
HLA-A*0301 (human) [2] = test: competition of unlabeled peptide with 125I-labeled standard probe peptide for purified HLA-A*0301, gel filtration
HLA-A*1101 (human) [3] = test: inhibition of binding of a 125I-labelled standard peptide to purified HLA-A*1101, with gel filtration separation
HLA-A*1101 (human) [4] = test: competition with a 125I-labeled standard probe peptide for purified HLA-A*1101, gel filtration
HLA-A*1101 (human) [5] = test: competition of unlabeled peptide with 125I-labeled standard probe peptide for purified HLA-A*1101, gel filtration
[6] = biological target: purified HLA-A*0201 molecules (human); test: competition with 125I-labelled standard probe peptide for purified HLA-A*0201; bound and free peptide separated by gel filtration
HLA-A*1101 (human) [7] = test: competition with 125I-labeled standard probe peptide for purified HLA, gel filtration
HLA-A*0301 (human) [8] = test: as above
HLA-A*0301 (human) [9] = test: competition against a 125I-labeled standard probe peptide for purified HLA-A*0301, gel filtration; relative binding
HLA-A*1101 (human) [10] = test: competition with 125I-radiolabeled standard probe peptide for purified HLA-A*1101, gel filtration
HLA-B*5301 (human) = test: competition with 125I-labelled standard peptide for purified HLA, gel filtration; relative binding
HLA-B*3501 (human) = test: as above
HLA-B*0702 (human) = test: as above
HLA-B*5101 (human) = test: as above

B1: HPV18 E6 77 peptide … (peptide)
peptide: ELRHYSDSVY
modifications: not checked
HLA-A*0101 (human)
  relative binding ratio (IC50 of the standard peptide / IC50 of the test peptide) (ratio to standard peptide): 0.0037

B2: HPV18 E1 peptide … (position 80, 9 amino acids) (peptide)
peptide: QVLHVLKRK
modifications: not checked
HLA-A*1101 (human) [1]
  relative binding ratio (IC50 of standard peptide / IC50 of test peptide): 0.002

B3: HPV45 E1 267-275 peptide … (SEQ ID NO: 37427) (peptide)
peptide: LILALLRYK
modifications: not checked
HLA-A*0301 (human) [2]
  relative binding ratio (IC50 of the standard peptide / IC50 of the test peptide): 0.27

B4: HPV16 E7 position 52 9-mer peptide … (SEQ ID NO: 40241) (peptide)
peptide: YNIVTFCCK
modifications: not checked
HLA-A*1101 (human) [3]
  relative binding ratio (IC50 of standard peptide / IC50 of test peptide): 0.0022

B5: HPV16 E6 peptide … (position 53, 9 amino acids; SEQ ID NO: 40120) (peptide)
peptide: AFRDLCIVY
modifications: not checked
HLA-A*1101 (human) [4]
  relative binding ratio (IC50 of standard peptide / IC50 of test peptide): 0.0001

B6: HPV18 E7 60-67 peptide TMLCMCCK (SEQ ID NO: 41224) (peptide)
peptide: TMLCMCCK
modifications: not checked
HLA-A*1101 (human) [5]
  binding affinity ratio (IC50 of standard peptide / IC50 of test peptide) (ratio relative to standard peptide): 0.024

B7: HPV16 E1 360 peptide … (peptide)
peptide: MVQWAYDNDI
modifications: not checked
[6]
  binding affinity ratio (IC50 of the standard peptide / IC50 of the test peptide): 0.0001

B8: HPV18 E1 peptide … (position 19, 9 amino acids) (peptide)
peptide: YVQAIVDKK
modifications: not checked
HLA-A*1101 (human) [7]
  relative binding ratio (IC50 of standard peptide / IC50 of test peptide) (ratio to standard peptide): 0.029
HLA-A*0301 (human) [8]
  relative binding ratio (IC50 of standard peptide / IC50 of test peptide) (ratio to standard peptide): 0.0005
HLA-A*0301 (human) [9]
  binding affinity ratio (IC50 of the standard peptide / IC50 of the test peptide): 0.0005
HLA-A*1101 (human) [10]
  relative binding ratio (IC50 of standard peptide / IC50 of test peptide): 0.029

B9: HPV45 E1 110 … (B07 supermotif peptide, 9 amino acids) (peptide)
peptide: SPRLQEISL
modifications: not checked
HLA-B*5301 (human)
  binding affinity ratio (IC50 of standard peptide / IC50 of test peptide): 0.0002
HLA-B*3501 (human)
  binding affinity ratio (IC50 of standard peptide / IC50 of test peptide): 0.0008
HLA-B*0702 (human)
  binding affinity ratio (IC50 of standard peptide / IC50 of test peptide): 0.62
HLA-B*5101 (human)
  binding affinity ratio (IC50 of standard peptide / IC50 of test peptide): 0.0005
